One assay addresses T1, fetuin (Bos taurus, UniProt P12763).
T1 chain: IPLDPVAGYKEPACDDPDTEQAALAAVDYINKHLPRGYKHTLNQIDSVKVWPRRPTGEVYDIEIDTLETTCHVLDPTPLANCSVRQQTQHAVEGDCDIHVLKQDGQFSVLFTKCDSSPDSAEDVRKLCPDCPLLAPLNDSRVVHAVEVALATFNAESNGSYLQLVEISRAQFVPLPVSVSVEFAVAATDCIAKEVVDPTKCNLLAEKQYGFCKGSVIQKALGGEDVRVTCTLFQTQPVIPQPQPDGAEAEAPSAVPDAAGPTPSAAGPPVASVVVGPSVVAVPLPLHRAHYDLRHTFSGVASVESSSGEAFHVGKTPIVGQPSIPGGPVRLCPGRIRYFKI
As to the kind of experiment: solid-phase assay, Scatchard analysis.

The next assay concerns the target T2, asialofetuin (Bos taurus, UniProt P12763).
T2 chain: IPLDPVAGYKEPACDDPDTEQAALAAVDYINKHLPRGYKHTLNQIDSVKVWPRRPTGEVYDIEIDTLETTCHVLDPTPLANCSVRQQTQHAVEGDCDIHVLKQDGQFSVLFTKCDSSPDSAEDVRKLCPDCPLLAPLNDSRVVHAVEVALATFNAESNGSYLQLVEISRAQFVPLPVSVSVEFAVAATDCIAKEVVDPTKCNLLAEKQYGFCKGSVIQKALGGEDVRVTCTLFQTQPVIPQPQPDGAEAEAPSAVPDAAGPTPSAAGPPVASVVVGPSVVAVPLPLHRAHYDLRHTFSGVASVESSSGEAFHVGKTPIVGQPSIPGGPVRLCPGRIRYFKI
As to the kind of experiment: solid-phase assay, Scatchard analysis.

For orientation: Kd means a measure of binding affinity in units of concentration. Higher therefore signals weaker binding.

B1: Gal-8 (NN) N-terminal CRD tandem homodimer (NN, no linker) (protein)
chain: MMLSLNNLQNIIYNPVIPFVGTIPDQLDPGTLIVIRGHVPSDADRFQVDLQNGSSMKPRADVAFHFNPRFKRAGCIVCNTLINEKWGREEITYDTPFKREKSFEIVIMVLKDKFQVAVNGKHTLLYGHRIGPEKIDTLGIYGKVNIHSIGFSFSS
modifications: engineered linker-free tandem of two Gal-8N CRDs, biotinylated; fetuin with sialylated N-glycans
In the assay with fetuin, B1 gave a Kd of 93 nM.

B2: Gal-8 (NN) N-terminal CRD tandem homodimer (NN, no linker) (protein)
chain: MMLSLNNLQNIIYNPVIPFVGTIPDQLDPGTLIVIRGHVPSDADRFQVDLQNGSSMKPRADVAFHFNPRFKRAGCIVCNTLINEKWGREEITYDTPFKREKSFEIVIMVLKDKFQVAVNGKHTLLYGHRIGPEKIDTLGIYGKVNIHSIGFSFSS
modifications: engineered linker-free tandem of two Gal-8N CRDs, biotinylated; fetuin chemically desialylated (N-glycans)
Consider B2, for which the Kd in the assay with asialofetuin turned out to be 148 nM.

(Values after article PMC6151538 (2017).)
